Experimental data published in patent US7892767B2, “Phosphospecific chemokine receptor antibodies” (Washington University in St. Louis, priority 2005, dated 2011).

Biological target: T1, CXCR4 (Homo sapiens, UniProt P61073)
T1 construct: lysates from the glioblastoma cell line LN428, which is known to express high levels of CXCR4; endogenous in cells; host or cells: LN428 GBM cell line
Assay: Stimulated CXCR4 phosphorylation in LN428 GBM cells (western blot)
Format: cell-based
Method: Cell Culture, transfections and stimulation of CXCR4 phosphorylation. The U87 glioblastoma multiforme (GBM, grade IV) cell line was obtained from the American Type Culture Collection. The LN428 GBM cell line was a kind gift of Dr Erwin van Meir (Winship Cancer Center, Emory University, Atlanta, Ga.). U87 cells were grown in minimum essential a media supplemented with 10% fetal bovine serum ((FBS), Biomedia, Foster City, Calif.). LN428 cells were grown in DMEM (Fisher, Pittsburgh, Pa.) supplemented with 10% horse serum (Sigma). All cells were grown in the presence of penicillin-streptomycin. The coding sequence for human CXCR4 was obtained by high fidelity RT-PCR (Superscript III Platinum, Invitrogen), and cloned into the expression vector pMSCVneo (Clontech, Palo Alto, Calif.). Transfections were performed with 0.3 μg of plasmid DNA in 20 μl Lipofectamine (Invitrogen)/35 mm^2 tissue culture dish for 9 hours according to the manufacturer's instructions. Cells recovered in Optimem supplemented with 10% FBS. Transfected and non-transfected cells were placed in serum free media for 24 hours prior to treatment with agents to stimulate CXCR4 phosphorylation. Treatment was usually for 0 or 10 minutes with 1 μg/ml CXCL12 (Peprotech, Rocky Hill N.J.), 4 μM 4-Phorbol 12-myristate 13-acetate (PMA) or 10 nM EGF. In some experiments, CXCL12 was washed away and cells were incubated for an additional 20 minutes in serum free media alone.
Western Blot Analysis. […] Peroxide activity was detected using the enhanced chemiluminescence Supersignal West Dura system (Pierce, Rockford, Ill.). […]
The utility of these antibodies for evaluating the relationship between ligand binding and CXCR4 function is dependent upon their ability to distinguish a ligand activated form of the receptor. […] Serum starved LN428 cells were treated with 1 μg/ml CXCL12 for 0 or 10 minutes and the abundance of phospho-CXCR4 was determined by western blot and immuno-localization in fixed cells. […]

[1] = 1 μg/ml CXCL12, 4 μM PMA or 10 nM EGF

T1 sequence (P61073 whole entry): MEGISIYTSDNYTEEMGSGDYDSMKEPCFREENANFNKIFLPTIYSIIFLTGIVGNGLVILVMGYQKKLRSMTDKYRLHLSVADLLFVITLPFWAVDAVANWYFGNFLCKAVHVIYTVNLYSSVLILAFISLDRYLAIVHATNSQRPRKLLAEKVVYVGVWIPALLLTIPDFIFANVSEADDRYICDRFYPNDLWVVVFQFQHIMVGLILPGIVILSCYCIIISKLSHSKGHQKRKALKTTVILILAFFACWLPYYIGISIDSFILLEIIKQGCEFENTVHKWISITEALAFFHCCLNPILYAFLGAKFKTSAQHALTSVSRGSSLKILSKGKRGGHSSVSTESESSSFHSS

- P338 phosphorylation stimulated [1]: not
- P339 phosphorylation [1]: stimulated
- P339-CXCR4 immunoreactivity compared with response to CXCL12 (4 μM PMA or 10 nM EGF): greater
B1: EGF: growth factor, ligand of the EGF receptor (protein, UniProt P01133 23-1207, looked up)
Pro-epidermal growth factor: PQHWSCPEGTLAGNGNSTCVGPAPFLIFSHGNSIFRIDTEGTNYEQLVVDAGVSVIMDFHYNEKRIYWVDLERQLLQRVFLNGSRQERVCNIEKNVSGMAINWINEEVIWSNQQEGIITVTDMKGNNSHILLSALKYPANVAVDPVERFIFWSSEVAGSLYRADLDGVGVKALLETSEKITAVSLDVLDKRLFWIQYNREGSNSLICSCDYDGGSVHISKHPTQHNLFAMSLFGDRIFYSTWKMKTIWIANKHTGKDMVRINLHSSFVPLGELKVVHPLAQPKAEDDTWEPEQKLCKLRKGNCSSTVCGQDLQSHLCMCAEGYALSRDRKYCEDVNECAFWNHGCTLGCKNTPGSYYCTCPVGFVLLPDGKRCHQLVSCPRNVSECSHDCVLTSEGPLCFCPEGSVLERDGKTCSGCSSPDNGGCSQLCVPLSPVSWECDCFPGYDLQLDEKSCAASGPQPFLLFANSQDIRHMHFDGTDYGTLLSQQMGMVYALDHDPVENKIYFAHTALKWIERANMDGSQRERLIEEGVDVPEGLAVDWIGRRFYWTDRGKSLIGRSDLNGKRSKIITKENISQPRGIAVHPMAKRLFWTDTGINPRIESSSLQGLGRLVIASSDLIWPSGITIDFLTDKLYWCDAKQSVIEMANLDGSKRRRLTQNDVGHPFAVAVFEDYVWFSDWAMPSVMRVNKRTGKDRVRLQGSMLKPSSLVVVHPLAKPGADPCLYQNGGCEHICKKRLGTAWCSCREGFMKASDGKTCLALDGHQLLAGGEVDLKNQVTPLDILSKTRVSEDNITESQHMLVAEIMVSDQDDCAPVGCSMYARCISEGEDATCQCLKGFAGDGKLCSDIDECEMGVPVCPPASSKCINTEGGYVCRCSEGYQGDGIHCLDIDECQLGEHSCGENASCTNTEGGYTCMCAGRLSEPGLICPDSTPPPHLREDDHHYSVRNSDSECPLSHDGYCLHDGVCMYIEALDKYACNCVVGYIGERCQYRDLKWWELRHAGHGQQQKVIVVAVCVVVLVMLLLLSLWGAHYYRTQKLLSKNPKNPYEESSRDVRSRRPADTEDGMSSCPQPWFVVIKEHQDLKNGGQPVAGEDGQAADGSMQPTSWRQEPQLCGMGTEQGCWIPVSSDKGSCPQVMERSFHMPSYGTQTLEGGVEKPHSLLSANPLWQQRALDPPHQMELTQ
modifications: Pro-epidermal growth factor
notes: growth factor, ligand of the EGF receptor
